Test results reported in CN117866905A (BEILAI PHARMACEUTICAL CO LTD, dated 2024).

T1: IL-17A重组蛋白(抗原), C端6×His标签 (human, UniProt Q16552 24-155, limits assumed, biotin in the ELISA of paragraph 227 (Biotin-IL-17A-His); site not stated)
T1 sequence: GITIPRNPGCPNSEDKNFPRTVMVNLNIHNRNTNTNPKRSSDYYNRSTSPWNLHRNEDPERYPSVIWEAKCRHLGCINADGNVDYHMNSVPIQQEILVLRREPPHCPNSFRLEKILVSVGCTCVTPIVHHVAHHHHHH


Columns and labels:
[1] = target: T1, IL-17A重组蛋白(抗原), C端6×His标签; assay: cell-based or functional assay
[2] = target: T1, IL-17A重组蛋白(抗原), C端6×His标签; assay: ELISA; antibody coated at 2 ug/mL, Biotin-IL-17A-His titrated from 10 ug/mL in 5-fold steps, HRP-streptavidin
[3] = target: 生物素化的IL-17A (ACRO Biosystems kit EP-139) (UniProt Q16552); assay: competition ELISA kit (ACRO EP-139); IL-17RA coated, biotinylated IL-17A, supernatant diluted 5-fold; inhibition of IL-17A/IL-17RA binding

| 阻断Human IL-17A蛋白激活293F-IL-17RA-IL-17Rc-ACT1-NFκB-Luc, IC50 [1] [nM] | EC50 [2] [µg/mL] | 结合抑制率 [3] [%] | Binder |
| --- | --- | --- | --- |
| 2.23 | 10.1 |  | 阳性对照抗体依奇珠单抗 (Ixekizumab) (antibody, human IgG4 S228P, kappa, V domains shown, also called 阳性抗体) VH: QVQLVQSGAEVKKPGSSVKVSCKASGYSFTDYHIHWVRQAPGQGLEWMGVINPMYGTTDYNQRFKGRVTITADESTSTAYMELSSLRSEDTAVYYCARYDYFTGTGVYWGQGTLVTVSS VL: DIVMTQTPLSLSVTPGQPASISCRSSRSLVHSRGNTYLHWYLQKPGQSPQLLIYKVSNRFIGVPDRFSGSGSGTDFTLKISRVEAEDVGVYYCSQSTHLPFTFGQGTKLEIKR |
|  |  | 60 | G4-H10:Fc融合蛋白 (IL-17Nb secreted by G4-H10-MSC; VHH-(GGGGS)3-VHH-IgG4 Fc) (Fc fusion) QVQLVESGGGLVQPGGSLRLSCAASGEKLDYFAIGWFRQAPGKEREVVSCVTSSGSSTNYLSSVKDRFTISIDNAKNTVYLQMNSLKPEDTAIYYCASTILLCSDYISAFGTWGQGTQVTVASGGGGSGGGGSGGGGSEVQLVESGGGLVQPGGSLRLSCAASGFSIHIYAMGWYRQAPGKQRELVATITRGGVTNNADSVKGRFTISRDNAKNTAYLQMNSLKPEDTAVYYCNAGGTNGGYWGQGTQVTVSSAPEFLGGPSVFLFPPKPKDTLMISRTPEVTCVVVDVSQEDPEVQFNWYVDGVEVHNAKTKPREEQFNSTYRVVSVLTVLHQDWLNGKEYKCKVSNKGLPSSIEKTISKAKGQPREPQVYTLPPSQEEMTKNQVSLTCLVKGFYPSDIAVEWESNGQPENNYKTTPPVLDSDGSFFLYSRLTVDKSRWQEGNVFSCSVMHEALHNHYTQKSLSLSLGK |
